Measurements: publication PMC2185075 (The Journal of Cell Biology, 1999)
Read-outs that look alike come from different tables or passages of the source. One block for each molecule: values may come before it.

Experiments:
Assay in all cases: two-hybrid
[1] = molecular target: ASF/SF2, two-hybrid fusion (UniProt Q07955)
[2] = molecular target: ASF/SF2, two-hybrid fusion (UniProt Q07955); remark: listed apart in the source
SC35, two-hybrid fusion [3] = molecular target: SC35, two-hybrid fusion (UniProt Q01130)
[4] = molecular target: ASF/SF2, two-hybrid fusion (UniProt Q07955); remark: listed apart in the source
SC35, two-hybrid fusion [5] = molecular target: SC35, two-hybrid fusion (UniProt Q01130); remark: listed apart in the source
[6] = molecular target: ASF/SF2, two-hybrid fusion (UniProt Q07955); remark: listed apart in the source
SC35, two-hybrid fusion [7] = molecular target: SC35, two-hybrid fusion (UniProt Q01130); remark: listed apart in the source
[8] = molecular target: T1, U2AF65, two-hybrid fusion (UniProt P26368 1-475)
[9] = molecular target: T2, U2AF65ΔRS, two-hybrid fusion (UniProt P26368 66-475)
[10] = molecular target: T1, U2AF65, two-hybrid fusion; remark: listed apart in the source
[11] = molecular target: T2, U2AF65ΔRS, two-hybrid fusion; remark: listed apart in the source

ASF/SF2, two-hybrid fusion, sequence (Q07955 whole entry, the tested form may be a part): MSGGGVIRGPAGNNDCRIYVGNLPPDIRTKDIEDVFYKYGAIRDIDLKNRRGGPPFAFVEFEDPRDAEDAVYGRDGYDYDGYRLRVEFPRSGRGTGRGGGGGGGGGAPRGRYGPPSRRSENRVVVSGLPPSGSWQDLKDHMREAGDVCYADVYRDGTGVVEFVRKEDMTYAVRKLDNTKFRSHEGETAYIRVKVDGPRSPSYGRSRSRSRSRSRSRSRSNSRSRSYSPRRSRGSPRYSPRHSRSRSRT
T2 sequence (P26368 66-475, stated change not applied): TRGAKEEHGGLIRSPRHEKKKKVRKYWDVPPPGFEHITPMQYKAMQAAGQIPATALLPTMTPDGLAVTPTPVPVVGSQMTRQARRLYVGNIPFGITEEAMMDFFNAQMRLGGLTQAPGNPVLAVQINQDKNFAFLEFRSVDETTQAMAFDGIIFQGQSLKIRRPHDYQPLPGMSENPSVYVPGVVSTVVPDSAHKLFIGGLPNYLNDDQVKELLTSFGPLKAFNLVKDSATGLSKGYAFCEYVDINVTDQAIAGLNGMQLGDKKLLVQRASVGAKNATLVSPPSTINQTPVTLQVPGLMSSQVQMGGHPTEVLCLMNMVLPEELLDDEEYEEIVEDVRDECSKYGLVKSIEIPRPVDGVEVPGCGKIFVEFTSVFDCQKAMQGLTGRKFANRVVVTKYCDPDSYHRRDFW
SC35, two-hybrid fusion, sequence (Q01130 whole entry, the tested form may be a part): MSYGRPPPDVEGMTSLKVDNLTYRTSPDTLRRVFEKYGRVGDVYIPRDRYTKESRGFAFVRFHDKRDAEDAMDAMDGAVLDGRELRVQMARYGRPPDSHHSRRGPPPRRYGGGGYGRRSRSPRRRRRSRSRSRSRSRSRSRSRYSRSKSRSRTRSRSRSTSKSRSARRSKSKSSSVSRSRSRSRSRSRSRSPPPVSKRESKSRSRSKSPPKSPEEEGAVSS
T1 sequence (P26368 whole entry, the tested form may be a part, one chain of several): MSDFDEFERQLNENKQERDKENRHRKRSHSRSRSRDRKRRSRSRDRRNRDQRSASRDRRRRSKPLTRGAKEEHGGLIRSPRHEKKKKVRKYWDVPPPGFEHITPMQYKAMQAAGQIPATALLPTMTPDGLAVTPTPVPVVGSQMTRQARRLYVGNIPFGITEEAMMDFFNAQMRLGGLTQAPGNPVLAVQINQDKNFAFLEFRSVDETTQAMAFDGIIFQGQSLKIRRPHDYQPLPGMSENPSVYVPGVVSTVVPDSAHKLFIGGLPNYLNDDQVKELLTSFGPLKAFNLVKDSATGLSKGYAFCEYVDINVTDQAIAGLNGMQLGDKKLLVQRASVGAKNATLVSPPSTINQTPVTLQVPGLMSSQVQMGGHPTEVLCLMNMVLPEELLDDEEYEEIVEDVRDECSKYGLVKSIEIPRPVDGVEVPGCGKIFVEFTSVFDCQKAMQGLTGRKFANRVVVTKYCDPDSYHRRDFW

percentage of the maximal two-hybrid interaction (β-galactosidase) [1]: 35% | percentage of the maximal two-hybrid interaction (β-galactosidase) [2]: 100% | percentage of the maximal two-hybrid interaction (β-galactosidase) (SC35, two-hybrid fusion [3]): 104% | percentage of the maximal two-hybrid interaction (β-galactosidase) [4]: 100% | percentage of the maximal two-hybrid interaction (β-galactosidase) (SC35, two-hybrid fusion [5]): 100% | percentage of the maximal two-hybrid interaction (β-galactosidase) [6]: 98% | percentage of the maximal two-hybrid interaction (β-galactosidase) (SC35, two-hybrid fusion [7]): 86%
Molecule: U1-70K, two-hybrid fusion (from UniProt P08621 1-437) (natural protein; other documents disagree on this pair)

two-hybrid β-galactosidase, fold over background (empty prey vector) [8]: 308 fold over background | two-hybrid β-galactosidase, fold over background (empty prey vector) [9]: 347 fold over background | two-hybrid β-galactosidase, fold over background (empty prey vector) [10]: 93 fold over background | two-hybrid β-galactosidase, fold over background (empty prey vector) [11]: 460 fold over background
B1: U2AF35ΔRS, two-hybrid fusion (domain or fragment)
chain: MAEYLASIFGTEKDKVNCSFYFKIGACRHGDRCSRLHNKPTFSQTIALLNIYRNPQNSSQSADGLRCAVSDVEMQEHYDEFFEEVFTEMEEKYGEVEEMNVCDNLGDHLVGNVYVKFRREEDAEKAVIDLNNRWFNGQPIHAELSPVTDFREACCRQYEMGECTRGGFCNFMHLKPISRELRRELYGRRR

two-hybrid β-galactosidase, fold over background (empty prey vector) [9]: 340 fold over background
B2: U2AF35, two-hybrid fusion (natural protein)
chain: MAEYLASIFGTEKDKVNCSFYFKIGACRHGDRCSRLHNKPTFSQTIALLNIYRNPQNSSQSADGLRCAVSDVEMQEHYDEFFEEVFTEMEEKYGEVEEMNVCDNLGDHLVGNVYVKFRREEDAEKAVIDLNNRWFNGQPIHAELSPVTDFREACCRQYEMGECTRGGFCNFMHLKPISRELRRELYGRRRKKHRSRSRSRERRSRSRDRGRGGGGGGGGGGGGRERDRRRSRDRERSGRF
